# Experimental data as given in patent US6835807B1, “Drug complex and drug delivery system” (Daiichi Pharmaceuticals Co., Ltd., priority 1998, dated 2004).
# Marks after values point to notes of the source that are not given here.
# What was measured:
# [1] = Release of the drug compound from the drug complex in buffer (Example 8); type: physicochemical; conditions: for released amount of the drug (DX-8951), percentage of the drug in the drug complex used: 37° C., 50 μg/ml, after 20 hours
# Method: (50 μg/ml). […] The released amount of the drug is expressed in percentage of the released amount of the drug to the amount of the drug in the drug complex used.
# [2] = system: Meth A tumor-bearing mice; test: Maximum tolerated dose of the drug complexes of Examples 5, 6 and 7 (Example 9); type: in vivo, BALB/c mice; conditions: single administration on the 13th day
# Method: Meth A cells were transplanted into BALB/c mice to prepare Meth A tumor-bearing mice. On the 13th day, the drug complexes obtained in Examples 5, 6 and 7 were singly administered. After the administration, measurement of the body weight and observation of toxic death were made with time, and the maximum body-weight reduction rate and mortality were calculated, which are shown in Table 5. The dose is expressed in terms of the weight of anhydrous free base of DX-8951.
# On the basis of the dose in which body weight reduction and death were observed, MTD of each complex were judged as follows.
# [3] = system: Meth A cells (murine fibrosarcoma Meth A); test: Antineoplastic activity of the drug complex of Example 1 (Example 4); type: in vivo, BALB/c mice; conditions: for BWLmax, maximum body-weight reduction rate / N, mice died/mice used / IR, diminution rate of the tumor / Average tumor weight / day when the maximum body-weight reduction was observed: administered on the 7th day; for IR, diminution rate of the tumor: 21th day; for Average tumor weight: tumor weighed on the 21th day
# Method: Meth A cells (murine fibrosarcoma Meth A) were transplanted into BALB/c mice to prepare Meth A tumor-bearing mice. On the 7th day after the transplantation, the drug complex of Example 1 was administered. The weight of the tumor was measured on the 21th day to evaluate the inhibitory activity on the tumor and the toxicity. In the table, * represents significance in Dunnet's test (*** P<0.001, ** P<0.01), the dose is expressed in terms of the weight of anhydrous free base of DX-8951, and IR represents the diminution rate of the tumor.
# [4] = Release of the drug compound from the drug complex in mouse plasma (Example 2); type: in vitro ADME; conditions: 37° C., 378 μg/ml, after 20 hours
# Meth A cells = test: Antineoplastic activity of the complexes of Examples 1, 5 and 6 (Example 10); type: in vivo, BALB/c mice; conditions: singly administered on the 7th day; for IR, diminution rate of the tumor: 21th day; for Average tumor weight: tumor weighed on the 21th day
# Method: Meth A cells were transplanted into BALB/c mice to prepare Meth A tumor-bearing mice. On the 7th day after the transplantation, the drug complexes shown in Examples 1, 5 and 6 were singly administered, respectively. The weight of the tumor was measured on the 21th day to evaluate the inhibitory activity on the tumor and the toxicity. In the table, * represents significance in Dunnet's test (*** p<0.001, ** P<0.01, * P<0.05), the dose is expressed in terms of the weight of anhydrous free base of DX-8951, and IR represents the diminution rate of the tumor.
# [5] = system: Meth A tumor-bearing mice; test: Maximum tolerated dose (MTD) of the drug complex of Example 1 (Example 3); type: in vivo, BALB/c mice; conditions: for N, mice died/mice used / BWLmax, maximum body-weight reduction rate / day when the maximum body-weight reduction was observed: single administration on the 20th day
# Method: Meth A cells were transplanted into BALB/c mice to prepare Meth A tumor-bearing mice. On the 20th day, single administration of the drug complex of Example 1 was carried out. After the administration, measurement of the body weight and observation of toxic death were made with time and the maximum body-weight reduction rate and mortality were calculated, which are shown in Table 2. The dose is expressed in terms of the weight of anhydrous free base of DX-8951.
# [6] = Release of the drug compound from the drug complex in buffer (Example 2); type: physicochemical; conditions: for released amount of the drug (DX-8951), percentage of the drug in the drug complex used: 37° C., 378 μg/ml, after 20 hours
# Method: (§1) The drug complex obtained in Example 1 was dissolved in a Meth A (murine fibrosarcoma Meth A) homogenate or a buffer at 37° C. (378 μg/ml). After 20 hours, released DX-8951 was determined. The compound wherein the spacer and DX-8951 were bound to each other without p-aminobenzyloxycarbonyl group was prepared and used as a comparative compound. The released amount of the drug is expressed in percentage of the released amount of the drug to the amount of the drug in the drug complex used.
# [7] = Release of the drug compound from the drug complex in Meth A homogenate (Example 2); type: in vitro ADME, murine; conditions: for released amount of the drug (DX-8951), percentage of the drug in the drug complex used: 37° C., 378 μg/ml, after 20 hours
# Method: as §1
substance,measurement,setting,value
carboxymethyldextran polyalcohol-Gly-Gly-NH-p-C6H4—CH2—O—CO-DX-8951 [Example 7],"released amount of the drug (DX-8951), percentage of the drug in the drug complex used",[1]; Buffer (pH 4.5),0.15%
same,"released amount of the drug (DX-8951), percentage of the drug in the drug complex used",[1]; Buffer (pH 6.5),0.16%
same,release of the drug in words,[1]; buffer,hardly released
same,"BWLmax, maximum body-weight reduction rate",[2]; 5 mg/kg,25.4%
same,day when the maximum body-weight reduction was observed,[2]; 5 mg/kg,18 days
same,"BWLmax, maximum body-weight reduction rate",[2]; 10 mg/kg,13.7%
same,day when the maximum body-weight reduction was observed,[2]; 10 mg/kg,16 days
same,"BWLmax, maximum body-weight reduction rate",[2]; 20 mg/kg,14.2%
same,day when the maximum body-weight reduction was observed,[2]; 20 mg/kg,16 days
same,"BWLmax, maximum body-weight reduction rate",[2]; 30 mg/kg,14.6%
same,day when the maximum body-weight reduction was observed,[2]; 30 mg/kg,16 days
same,MTD,[2]; dose as DX-8951 anhydrous free base,<2.5 mg/kg
Carboxymethyldextran polyalcohol-Gly-Gly-Phe-Gly-NH-p-C6H4—CH2—O—CO-DX-8951 [Example 1],"BWLmax, maximum body-weight reduction rate",[3]; 0.625 mg/kg,<0%
same,"N, mice died/mice used",[3]; 0.625 mg/kg,0/6
same,"IR, diminution rate of the tumor",[3]; 0.625 mg/kg,46%
same,Average tumor weight,[3]; 0.625 mg/kg,1.247 ± 0.280** g
same,"BWLmax, maximum body-weight reduction rate",[3]; 1.25 mg/kg,0.3%
same,"N, mice died/mice used",[3]; 1.25 mg/kg,0/6
same,day when the maximum body-weight reduction was observed,[3]; 1.25 mg/kg,8 days
same,"IR, diminution rate of the tumor",[3]; 1.25 mg/kg,74%
same,Average tumor weight,[3]; 1.25 mg/kg,0.610 ± 0.180*** g
same,"BWLmax, maximum body-weight reduction rate",[3]; 5 mg/kg,2.9%
same,"N, mice died/mice used",[3]; 5 mg/kg,0/6
same,day when the maximum body-weight reduction was observed,[3]; 5 mg/kg,13 days
same,"IR, diminution rate of the tumor",[3]; 5 mg/kg,99%
same,Average tumor weight,[3]; 5 mg/kg,0.019 ± 0.004*** g
same,"BWLmax, maximum body-weight reduction rate",[3]; 7.5 mg/kg,24.8%
same,"N, mice died/mice used",[3]; 7.5 mg/kg,2/6
same,day when the maximum body-weight reduction was observed,[3]; 7.5 mg/kg,15 days
same,"IR, diminution rate of the tumor",[3]; 7.5 mg/kg,100%
same,Average tumor weight,[3]; 7.5 mg/kg,0.008 ± 0.002*** g
same,effect on tumor weight in words,[3]; 0.625 to 7.5 mg/kg,apparently diminished tumor weight dose-dependently
same,"N, mice died/mice used",[3]; […],0/6
same,"released amount of the drug (DX-8951), percentage of the drug in the drug complex used",[4],0.186%
same,"BWLmax, maximum body-weight reduction rate",Meth A cells; 0.625 mg/kg,<0%
same,"N, mice died/mice used",Meth A cells; 0.625 mg/kg,0/6
same,"IR, diminution rate of the tumor",Meth A cells; 0.625 mg/kg,43%
same,Average tumor weight,Meth A cells; 0.625 mg/kg,1.489 ± 0.215** g
same,"BWLmax, maximum body-weight reduction rate",Meth A cells; 1.25 mg/kg,<0%
same,"N, mice died/mice used",Meth A cells; 1.25 mg/kg,0/6
same,"IR, diminution rate of the tumor",Meth A cells; 1.25 mg/kg,71%
same,Average tumor weight,Meth A cells; 1.25 mg/kg,0.775 ± 0.207*** g
same,"BWLmax, maximum body-weight reduction rate",Meth A cells; 5 mg/kg,4.0%
same,"N, mice died/mice used",Meth A cells; 5 mg/kg,0/6
same,day when the maximum body-weight reduction was observed,Meth A cells; 5 mg/kg,13 days
same,"IR, diminution rate of the tumor",Meth A cells; 5 mg/kg,100%
same,Average tumor weight,Meth A cells; 5 mg/kg,0.004 ± 0.001*** g
same,"BWLmax, maximum body-weight reduction rate",Meth A cells; 7.5 mg/kg,26.1%
same,"N, mice died/mice used",Meth A cells; 7.5 mg/kg,2/6
same,day when the maximum body-weight reduction was observed,Meth A cells; 7.5 mg/kg,16 days
same,"IR, diminution rate of the tumor",Meth A cells; 7.5 mg/kg,100%
same,Average tumor weight,Meth A cells; 7.5 mg/kg,0.005 ± 0.003*** g
same,"N, mice died/mice used",Meth A cells; […],0/6
same,"N, mice died/mice used",[5]; 0.156 mg/kg,0/2
same,"BWLmax, maximum body-weight reduction rate","[5]; 0.156 mg/kg, <0 = no reduction observed",<0%
same,"N, mice died/mice used",[5]; 0.625 mg/kg,0/2
same,"BWLmax, maximum body-weight reduction rate","[5]; 0.625 mg/kg, <0 = no reduction observed",<0%
same,toxic death in words,[5]; 10 mg/kg,toxic death of all the cases
same,"BWLmax, maximum body-weight reduction rate",[5]; 10 mg/kg,32.8%
same,"N, mice died/mice used",[5]; 10 mg/kg,2/2
same,day when the maximum body-weight reduction was observed,[5]; 10 mg/kg,26 days
same,"BWLmax, maximum body-weight reduction rate",[5]; 30 mg/kg (as DX-8951 anhydrous free base),17.9%
same,"N, mice died/mice used",[5]; 30 mg/kg,2/2
same,day when the maximum body-weight reduction was observed,[5]; 30 mg/kg,22 days
same,"N, mice died/mice used",[5]; […],0/2
same,"released amount of the drug (DX-8951), percentage of the drug in the drug complex used",[6]; Buffer (pH 4.5),0.190%
same,"released amount of the drug (DX-8951), percentage of the drug in the drug complex used",[6]; Buffer (pH 5.5),0.178%
same,"released amount of the drug (DX-8951), percentage of the drug in the drug complex used",[6]; Buffer (pH 6.5),0.171%
same,"released amount of the drug (DX-8951), percentage of the drug in the drug complex used",[6]; Buffer (pH 7.5),0.138%
same,release of the drug in words,[6]; buffer,hardly released
same,"released amount of the drug (DX-8951), percentage of the drug in the drug complex used",[7]; Meth A homogenate (pH 4.5),37.7%
same,"released amount of the drug (DX-8951), percentage of the drug in the drug complex used",[7]; Meth A homogenate (pH 5.5),38.1%
same,"released amount of the drug (DX-8951), percentage of the drug in the drug complex used",[7]; Meth A homogenate (pH 6.5),4.25%
same,releasing rate of DX-8951 relative to the drug complex obtained in Example 5,[7]; tables in Examples 2 and 8,about 113
same,release of the drug in words,[7]; weakly acidic homogenate,rapidly released
Carboxymethyldextran polyalcohol-Gly-Gly-Gly-Phe-NH-p-C6H4—CH2—O—CO-DX-8951 [Example 6],"IR, diminution rate of the tumor",Meth A cells; 0.15625 mg/kg,37%
same,Average tumor weight,Meth A cells; 0.15625 mg/kg,1.645 ± 0.191* g
same,"IR, diminution rate of the tumor",Meth A cells; 0.3125 mg/kg,46%
same,Average tumor weight,Meth A cells; 0.3125 mg/kg,1.419 ± 0.163** g
same,"IR, diminution rate of the tumor",Meth A cells; 0.625 mg/kg,90%
same,Average tumor weight,Meth A cells; 0.625 mg/kg,0.272 ± 0.066*** g
same,"IR, diminution rate of the tumor",Meth A cells; 1.25 mg/kg,99%
same,Average tumor weight,Meth A cells; 1.25 mg/kg,0.016 ± 0.008*** g
